PMC5095173, “Disulfide-activated protein kinase G Iα regulates cardiac diastolic relaxation and fine-tunes the Frank–Starling response” (Nature Communications, 2016)

B1: Fdx1 pS181 (protein, UniProt P24483 65-188, looked up)
Adrenodoxin, mitochondrial: SSSEDKVTVHFKNRDGETLTTKGKVGDSLLDVVIENNLDIDGFGACEGTLACSTCHLIFEDHIYEKLDAITDEENDMLDLAFGLTNRSRLGCQVCLTKAMDNMTVRVPEAVADVRQSVDMSKNS
modifications: phosphorylated at S181
B2: Akap1 pS103 (protein, UniProt O88884 30-854, looked up)
A-kinase anchor protein 1, …: KDRLSSNGKQVGTLKVGPAIEDRLPTEEACPGVLSVTPSVTQPPGKEEQRSMDRPLSDPPALPRTRQVRRRSESSGNLPSIVDTRLQAGQCSDENSKVVLSLMGDEAKSIPLGRPLFPKDLSFPYEAVEGCKQESALGRTPGRGWLSQCAASGENARETGGAEGTGDAVLGESVLEEGLLPQECVSEVEKSEFPILAPGGGGGEKVRSGPPQVDELLKKEEYIVGKLPSSFVGPVHSELVKDEGALVPQVKGSQDRSLARELDKDKTLPEKDQIEQTAFQIISQVILEATEEIRATTVGKTVAQVHPTPGTQPQGQEESCVPASQETSLGQEIPDPASTRTGATASPSAGAPPPKTYVSCLSSPLSGPTKDQKPKNSAHHISLAPCPPPVTPQRQSLDGASNPRGDDTFVTCTSNNSQSVLSVTSLGLCSDPVSTSRLEDSCTETISSSGDKAVTPPLPDSTEPFSNGVLKEELSDLGTEDGWTMDTEADHSGGSDGNSMDSVDSCCGLTKPDSPQTVQAGSNPKKVDLIIWEIEVPKHLVGRLIGKQGRYVSFLKQTSGAKIYISTLPYTQNIQICHIEGSQHHVDKALNLIGKKFKELNLTNIYAPPLPSLALPSLPMTSWLMLPDGITVEVIVVNQVNAGHLFVQQHTHPTFHALRSLDQQMYLCYSQPGIPTLPTPVEITVICAAPGADGAWWRAQVVASYEETNEVEIRYVDYGGYKRVKVDVLRQIRSDFVTLPFQGAEVLLDSVVPLSDDDHFSPEADAAMSEMTGNTALLAQVTSYSATGLPLIQLWSVVGDEVVLINRSLVERGLAQWVDSCYASL
modifications: phosphorylated at S103
B3: C-1-tetrahydrofolate synthase, cytoplasmic: PKGIα substrate, phospho site T545 (protein, UniProt P27653 1-935, looked up)
C-1-tetrahydrofolate …: MAPAGILNGKVVSAQIRNRLKTQVTQMQEQVPGFTPGLAILQVGDRDDSNLYINVKLKAAQEIGIKATHIKLPRTSTESEVLKYVISLNEDATVHGFIVQLPLDSENSINTEAVINAIAPEKDVDGLTSINAGKLARGDLKDCFIPCTPKGCLELIKETGVQIAGRHAVVVGRSKIVGAPMHDLLLWNNATVTTCHSKTADLDKEVNKGDILVVATGQPEMVKGEWIKPGAVVIDCGINYVPDDTKPNGRKVVGDVAYDEAKEKASFITPVPGGVGPMTVAMLMQSTVESAQRFLKKFKPGKWTIQYNKLNLKTPVPSDIAISRSCKPKLIGNLAREIGLLTEEVELYGETKAKVLLSALDRLKHQPDGKYVVVTGITPTPLGEGKSTTTIGLVQALGAHLHQNVFACVRQPSQGPTFGIKGGAAGGGYSQVIPMEEFNLHLTGDIHAITAANNLVAAAIDARIFHELTQTDKALFNRLVPSVNGVRKFSDIQIRRLRRLGIEKTDPAALTDDEINRFARLDIDPETITWQRVLDTNDRFLRKITIGQAPTEKGHTRTAQFDISVASEIMAVLALTSSLEDMRARLGKMVVASSKKGEPISCEDLGVSGALTVLMKDAIKPNLMQTLEGTPVFVHAGPFANIAHGNSSIIADRIALKLVGPEGFVVTEAGFGADIGMEKFFNIKCRYSGLQPHVVVLVATVRALKMHGGGPTVTAGLPLPKAYTEEDLDLVEKGFSNLRKQIENARMFGVPVVVAMNAFKTDTDTELDLIGRLSREHGAFDAVKCTHWAEGGQGALALAQAVQRASQAPSSFQLLYDLKLSVEDKIRIIAQKIYGADDIELLPEAQNKAEIYTKQGFGNLPICMAKTHLSLSHNPEQKGVPTGFVLPIRDIRASVGAGFLYPLVGTMSTMPGLPTRPCFYDIDLDPETEQVNGLF
modifications: phosphorylated at T545
B4: Alpha-2-macroglobulin receptor-associated protein: PKGIα substrate, phospho site S245 (protein, UniProt Q99068 34-360, looked up)
Alpha-2-macroglobulin …: HGGKYSREKNEPEMAAKRESGEEFRMEKLNQLWEKAKRLHLSPVRLAELHSDLKIQERDELNWKKLKVEGLDGDGEKEAKLVHNLNVILARYGLDGRKDTQTVHSNALNEDTQDELGDPRLEKLWHKAKTSGKFSSEELDKLWREFLHYKEKIHEYNVLLDTLSRAEEGYENLLSPSDMTHIKSDTLASKHSELKDRLRSINQGLDRLRKVSHQGYGPATEFEEPRVIDLWDLAQSANFTEKELESFREELKHFEAKIEKHNHYQKQLEISHQKLKHVESIGDPEHISRNKEKYVLLEEKTKELGYKVKKHLQDLSSRVSRARHNEL
modifications: phosphorylated at S245
B5: 6-phosphofructokinase, liver type: PKGIα substrate, phospho site S775 (protein, UniProt P30835 2-780, looked up)
ATP-dependent …: ATVDLEKLRMSGAGKAIGVLTSGGDAQGMNAAVRAVTRMGIYVGAKVFLIYEGYEGLVEGGENIKPANWLSVSNIIQLGGTIIGSARCKAFTTREGRLAAAYNLLQHGITNLCVIGGDGSLTGANIFRNEWGSLLEELVKEGKISESTAQNYAHLSIAGLVGSIDNDFCGTDMTIGTDSALHRIMEVIDAITTTAQSHQRTFVLEVMGRHCGYLALVSALASGADWLFIPEAPPEDGWENFMCERLGETRSRGSRLNIIIIAEGAIDRHGKPISSSYVKDLVVQRLGFDTRVTVLGHVQRGGTPSAFDRVLSSKMGMEAVMALLEATPDTPACVVSLSGNQSVRLPLMECVQVTKDVQKAMDEKRFDEAIQLRGRSFENNWKIYKLLAHQKVSKEKSNFSLAILNVGAPAAGMNAAVRSAVRTGISEGHTVYVVHDGFEGLAKGQVQEVGWHDVAGWLGRGGSMLGTKRTLPKPHLEAIVENLRTYNIHALLVIGGFEAYEGVLQLVEARGRYEELCIVMCVIPATISNNVPGTDFSLGSDTAVNAAMESCDRIKQSASGTKRRVFIVETMGGYCGYLATVTGIAVGADAAYVFEDPFNIHDLKANVEHMTEKMKTDIQRGLVLRNEKCHEHYTTEFLYNLYSSEGRGVFDCRTNVLGHLQQGGAPTPFDRNYGTKLGVKAMLWMSEKLRDVYRKGRVFANAPDSACVIGLRKKVVAFSSVTELKKETDFEHRMPREQWWLNLRLMLKMLAHYRISMADYVSGELEHVTRRTLSIDKGF
modifications: phosphorylated at S775
B6: Pfkl pS775 (protein, UniProt P30835 2-780, looked up)
ATP-dependent …: B5 ATP-dependent …
modifications: phosphorylated at S775

Tests used:
[1] = tested on: PKGIα (analogue-sensitive C42S/M438G), cGMP-activated; experiment: Chemical genetic phosphoproteomic screen, cGMP-activated PKGIα C42S/M438G versus unactivated control; type: biochemical, human PKGIα; substrates in rat heart homogenate; conditions: for log2 fold change cGMP vs Control: control = PKGIα C42S/M438G; for Log2 fold change in phosphorylation, cGMP versus control: PKGIα C42S/M438G + 100 μM cGMP vs basal, 1 h, 30 °C, pH 7.5, rat heart homogenate, label-free LC–MS/MS, n=4, * P<0.05 Dunnett: all values except phospholamban S16
Summary of the method: (§1)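 Analogue-sensitive human PKGIα mutants (M438G, air-oxidized to disulfide dimer; C42S/M438G, cGMP-activated), expressed in 293-F cells, thiophosphorylate substrates in rat left-ventricle lysate (20 mg ml) using N6-alkylated ATPγS. Thiophosphopeptides are recovered by covalent capture and identified with sites by LC–MS/MS, each compared against an unactivated control.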

[2] = tested on: PKGIα (analogue-sensitive M438G), disulfide-activated; experiment: Chemical genetic phosphoproteomic screen, disulfide-activated PKGIα M438G versus unactivated control; type: biochemical, human PKGIα; substrates in rat heart homogenate; conditions: for log2 fold change Disulfide vs Control: control = PKGIα C42S/M438G; for Log2 fold change in phosphorylation, Disulfide versus control: disulfide-activated PKGIα M438G vs basal, 1 h, 30 °C, pH 7.5, rat heart homogenate, label-free LC–MS/MS, n=4, * P<0.05 Dunnett: only phospholamban S16
Summary of the method: as §1

Row | Molecule | log2 fold change cGMP vs Control [1] | log2 fold change Disulfide vs Control [2] | Log2 fold change in phosphorylation, cGMP versus control [1] | Log2 fold change in phosphorylation, Disulfide versus control [2]
1 | B1 | 5.584 | 2.723 |  | 
2 | B2 | 1.156 | 0.8425 |  | 
3 | B3 |  |  | 3.68* | 1.48
4 | B4 |  |  | 2.64* | 0.32
5 | B5 |  |  | 4.13* | 1.48
6 | B6 | 4.1288 | 1.482 |  | 
